# Measurements from paper PMC11940890.
# Assays:
# eFSHR-N191Q (equine) = eFSHR-N191Q (equine) (UniProt P47799)
# eFSHR-N199Q (equine) = eFSHR-N199Q (equine) (UniProt P47799)
# eFSHR-N268Q (equine) = eFSHR-N268Q (equine) (UniProt P47799)
# eFSHR-N293Q (equine) = eFSHR-N293Q (equine) (UniProt P47799)
# [1] = target: equine follicle-stimulating hormone receptor wild type (eFSHR-wt) (equine) (UniProt P47799)
# Sequence of equine follicle-stimulating hormone receptor wild type (eFSHR-wt) (equine) (P47799 18-694): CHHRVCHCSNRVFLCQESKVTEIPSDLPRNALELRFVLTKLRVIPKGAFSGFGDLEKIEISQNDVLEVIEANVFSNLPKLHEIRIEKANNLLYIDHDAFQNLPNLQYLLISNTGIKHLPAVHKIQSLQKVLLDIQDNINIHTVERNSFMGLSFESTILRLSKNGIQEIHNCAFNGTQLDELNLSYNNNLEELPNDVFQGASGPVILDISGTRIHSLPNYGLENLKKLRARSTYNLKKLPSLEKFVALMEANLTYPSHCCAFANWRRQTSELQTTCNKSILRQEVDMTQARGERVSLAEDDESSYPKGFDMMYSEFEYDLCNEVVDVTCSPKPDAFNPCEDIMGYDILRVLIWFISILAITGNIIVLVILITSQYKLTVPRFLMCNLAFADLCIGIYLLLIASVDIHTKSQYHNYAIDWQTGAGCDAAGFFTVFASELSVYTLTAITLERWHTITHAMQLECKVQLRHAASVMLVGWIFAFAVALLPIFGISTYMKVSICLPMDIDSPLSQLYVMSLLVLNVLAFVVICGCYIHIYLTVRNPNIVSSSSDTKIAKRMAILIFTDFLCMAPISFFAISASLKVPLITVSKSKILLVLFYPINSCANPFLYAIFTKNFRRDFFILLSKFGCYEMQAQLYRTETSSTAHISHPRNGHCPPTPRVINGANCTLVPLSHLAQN
# Sequence of Human FSH (hFSH) (P01215 25-116): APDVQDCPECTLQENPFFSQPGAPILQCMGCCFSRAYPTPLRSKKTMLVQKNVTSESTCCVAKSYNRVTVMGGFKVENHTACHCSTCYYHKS
# Sequence of Human FSH (hFSH) (P01225 19-129): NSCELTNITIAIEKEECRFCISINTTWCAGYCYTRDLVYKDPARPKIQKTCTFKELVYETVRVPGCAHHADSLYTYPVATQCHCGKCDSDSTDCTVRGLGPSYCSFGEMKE
# Sequence of eFSHR-N191Q (equine) (P47799 18-694 N191Q): as the sequence (P47799 18-694) above, with N174Q counted along it
# Sequence of eFSHR-N293Q (equine) (P47799 18-694 N293Q): as the sequence (P47799 18-694) above, with N276Q counted along it
# Sequence of eFSHR-N199Q (equine) (P47799 18-694 N199Q): as the sequence (P47799 18-694) above, with N182Q counted along it
# Sequence of eFSHR-N268Q (equine) (P47799 18-694 N268Q): as the sequence (P47799 18-694) above, with N251Q counted along it
substance,measurement,setting,value
Human FSH (hFSH) (from UniProt P01215 25-116; P01225 19-129) (ligand),"EC50 of hFSH-stimulated cAMP response (HTRF cAMP assay), CHO-K1 cells expressing the receptor, 30 min at room temperature",eFSHR-N191Q (equine),2.11 µg/mL
same,"EC50 of hFSH-stimulated cAMP response (HTRF cAMP assay), CHO-K1 cells expressing the receptor, 30 min at room temperature",eFSHR-N199Q (equine),2.21 µg/mL
same,"EC50 of hFSH-stimulated cAMP response (HTRF cAMP assay), CHO-K1 cells expressing the receptor, 30 min at room temperature",eFSHR-N268Q (equine),0.806 µg/mL
same,"EC50 of hFSH-stimulated cAMP response (HTRF cAMP assay), CHO-K1 cells expressing the receptor, 30 min at room temperature",eFSHR-N293Q (equine),1.24 µg/mL
same,"EC50 of hFSH-stimulated cAMP response (HTRF cAMP assay), CHO-K1 cells expressing the receptor, 30 min at room temperature",[1],0.99 µg/mL
